Data set [1] has as its target T1, Dda 1993 C114G C114G (Enterobacteria phage T4) (UniProt P32270).
T1 sequence: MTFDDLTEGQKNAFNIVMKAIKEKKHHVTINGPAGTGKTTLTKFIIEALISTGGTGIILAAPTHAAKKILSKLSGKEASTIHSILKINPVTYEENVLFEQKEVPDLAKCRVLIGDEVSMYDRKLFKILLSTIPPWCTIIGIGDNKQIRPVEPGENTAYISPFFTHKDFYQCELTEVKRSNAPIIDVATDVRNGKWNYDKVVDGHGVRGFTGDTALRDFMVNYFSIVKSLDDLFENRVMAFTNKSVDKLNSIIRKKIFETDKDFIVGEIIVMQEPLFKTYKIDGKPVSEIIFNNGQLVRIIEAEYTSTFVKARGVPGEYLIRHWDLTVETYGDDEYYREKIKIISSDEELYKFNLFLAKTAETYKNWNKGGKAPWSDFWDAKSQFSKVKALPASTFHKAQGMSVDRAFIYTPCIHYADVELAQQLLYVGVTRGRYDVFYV
The following applies: nanopore translocation; background mutations not given.

Data set [2] has as its target T2, Dda 1993 C114I C114I (Enterobacteria phage T4) (UniProt P32270).
T2 sequence: T1 sequence with G114I
The conditions noted are these: nanopore translocation; background mutations not given.

The target of data set [3] is T3, Dda 1993 C114M C114M (Enterobacteria phage T4) (UniProt P32270).
T3 sequence: T1 sequence with G114M
The conditions noted are these: nanopore translocation; background mutations not given.

Data set [4] has as its target T4, Dda 1993 C114P C114P (Enterobacteria phage T4) (UniProt P32270).
T4 sequence: T1 sequence with G114P
The following applies: nanopore translocation; background mutations not given.

The target in data set [5] is T5, Dda 1993 C114V C114V (Enterobacteria phage T4) (UniProt P32270).
T5 sequence: T1 sequence with G114V
The following applies: nanopore translocation; background mutations not given.

Data set [6] has as its target T6, Dda 1993 K358E K358E (Enterobacteria phage T4) (UniProt P32270).
T6 sequence: T1 sequence with G114C, K358E
The following applies: nanopore translocation, FLO-MIN112; background mutations not given.

Where a chain is given by its changes, count along the chain named.

As to “barcoded 3.6 kb DNA analyte ligated to sequencing Y adaptor”, the activity (bps speed delta vs control) is -11.3 in data set [1]; 93.7 in data set [2]; 81.8 in data set [3]; 84.5 in data set [4]; 26 in data set [5]; -7.28 in data set [6].

Values taken from patent US20250382602.
